The values that follow come from patent US7301069B2, “Methods of protecting plants from pathogenic fungi and nematodes” (Pioneer Hi-Bred International, Inc., priority 2004, dated 2007).

The chains are these.
B1: Kis5: Kistrin polypeptide of SEQ ID NO: 4 from Picea mariana (black spruce), predicted mature region, recombinantly expressed in E. coli as cleaved MBP fusion (protein, listed as Picea mariana)
chain: GSLRPSECGQRCSYRCSATSHKKPCMFFCQKCCAKCLCVPPGTFGNKQVCPCYNNWKTQQGGPKCP
modifications: PEPTIDE (0)...(0) Kis5 mature peptide
B2: Kis6: Kistrin polypeptide of SEQ ID NO: 7 from Arabidopsis thaliana, predicted mature region, recombinantly expressed in E. coli as cleaved MBP fusion (protein, listed as Arabidopsis thaliana)
chain: GYAKKIDCGSACVARCRLSRRPRLCHRACGTCCYRCNCVPPGTYGNYDKCQCYASLTTHGGRRKCP
modifications: PEPTIDE (0)...(0) Kis6 mature peptide
B3: Kis10: Kistrin polypeptide of SEQ ID NO: 10 from Petunia x hybrida, predicted mature region, recombinantly expressed in E. coli as cleaved MBP fusion (protein)
chain: GSLKPSQCLPQCTRRCSQTQYHNACMLFCQKCCNKCLCVPPGFYGNKGVCPCYNNWKTKEGGPKCP
modifications: Petunia x hybrida; PEPTIDE (0)...(0) Kis10 mature peptide
B4: Kis2: Kistrin polypeptide of SEQ ID NO: 1 from Arabidopsis thaliana, predicted mature region, recombinantly expressed in E. coli as cleaved MBP fusion (protein, listed as Arabidopsis thaliana)
chain: GKLKPQQCNSKCSFRCSATSHKKPCMFFCLKCCKKCLCVPPGTFGNKQTCPCYNNWKTKEGRPKCP
modifications: PEPTIDE (0)...(0) Kis2 mature peptide

The first assay has as its system C. elegans. Put plainly: C. elegans feeding bioassay. In kind it is in vivo, Caenorhabditis elegans. The conditions noted are these: cleaved peptides; concentrations based on Bradford (BSA standard), assume 100% cleavage of the MBP-Kistrin fusion. The procedure:
A number of polypeptides were recombinantly expressed in E. coli and then screened in a nematode bioassay.
C. elegans feeding bioassays. Screening was performed in high throughput using E. coli expressed material, corresponding to the predicted mature regions of various small peptides. Expression of biologically functional polypeptides involved producing a fusion protein that included a maltose-binding protein (MBP) and a polypeptide of interest and subsequently cleaving the fusion protein at a protease recognition sequence to release the peptide of interest. DNA encoding the polypeptide of interest was fused to the C-terminus of the MelE gene in the E. coli expression vector pMAL (New England Biolabs; see, Guan et al., Gene 67:21-30 (1987); and Maina et al., Gene 74:365-73 (1988)). Sequences encoding the cleavage site of proteases Factor Xa or Genenase I were incorporated between the genes of MBP and the polypeptide of interest. A histidine tag was also added to the N-terminus of MBP.
The constructed plasmid vector was transformed into cells of E. coli XL-1 Blue and transformants were grown in 2YT medium containing 50 μg/mL carbenicillin to a cell density of OD600=0.6-0.9. Expression of the fusion protein was induced by addition of IPTG into the culture to a final concentration of 1 mM. Cells were grown for 4-16 hours to saturation before harvesting. Cells were harvested by centrifugation and then lysed with B-PER reagent (Pierce Chemicals, Rockford, Ill.) to obtain the fraction of soluble proteins. The fusion protein was purified from the cell lysate supernatant utilizing the histidine tag by incubating the cell lysate with Ni-NTA agarose resins for 20 minutes to 1 hour. The resins were washed with Tris buffer to remove all unbound proteins. Two-mercaptoethanol (10 mM) was included in the lysis and washing buffers to allow partial refolding of the proteins. Elution of the bound fusion protein was performed with buffer containing 20-40 mM […]. To release the polypeptide of interest, the purified fusion protein was incubated with Factor Xa or Genease I (RT, 8-24 hours). The cleaved protein sample was then used in nematode activity assays.
Hit characterization. Approximate IC50's (in μg/mL) for 4 hits determined from C. elegans bioassay using cleaved peptides. Concentrations were determined based on Bradford (BSA standard) and assume 100% cleavage of the MBP-Kistrin fusion.
Take B1: the “Approximate IC50 from C. elegans bioassay” value (shortened to “Approximate IC50”) worked out at 75 µg/mL.

As for B2, the “Approximate IC50” value came to 150 µg/mL.

Consider B3, for which the “Approximate IC50” value came to 30 µg/mL.

As to B4, the “Approximate IC50” value was determined as 15 µg/mL.

The test system of a further assay is Alternaria brassicicola. Put plainly: Anti-fungal bioassay (primary screening). It counts as cell-based. Further details: key: 0 = no effect; 1 = partial growth inhibition; 2 = strong inhibition. The conditions noted are these: protease-cleaved fusion protein samples, scored after 18 to 48 hours. The procedure:
(§1) The same polypeptides of Example 1 which were recombinantly expressed in E. Coli were also screened in an anti-fungal bioassay against five selected fungal pathogens.
(§2) All fungal strains were grown and maintained on potato dextrose agar (PDA) plates, in a 30° C. incubator. These plates were kept in smaller secondary containers (per fungal strain), with moist paper towels to maintain high humidity. Spores were harvested in a quarter strength of potato dextrose broth (PDB) after about 2 weeks of growth, counted using a hemacytometer, and subsequently stored in small aliquots at −80° C.
(§3) The frozen spores were diluted to the working concentration (determined empirically for each fungal strain), in a quarter strength of PDB, and 50 μL (per well) were added to sterile, flat-bottomed 96-well assay plates. The assay plates were incubated in the humid boxes at room temperature for 5-7 hours to allow the spores to germinate. Serial dilutions of purified, protease-cleaved fusion protein samples were then added to the assay plates, in 50 μL volumes, for a final assay volume of 100 μL per well. The assay plates were allowed to incubate overnight, in a humid box, at 30° C. Antifungal activity was scored after 18 to 48 hours, depending upon the strain of fungus.
Regarding B1, the “Antifungal score, Alternaria brassicicola” value worked out at 0.

In the case of B2, the “Antifungal score, Alternaria brassicicola” value was found to be 0.

Turning to B3, the “Antifungal score, Alternaria brassicicola” value is recorded as 0.

With B4, the “Antifungal score, Alternaria brassicicola” value amounted to 0.

The next assay has as its system Botrytis cinerea. Put plainly: Anti-fungal bioassay (primary screening). In kind it is cell-based. Set-up: key: 0 = no effect; 1 = partial growth inhibition; 2 = strong inhibition. The conditions noted are these: protease-cleaved fusion protein samples, scored after 18 to 48 hours. The procedure:
as §1, §2, §3
Turning to B1, the “Antifungal score, Botrytis cinerea” value stood at 0.

Regarding B2, the “Antifungal score, Botrytis cinerea” value came to 0.

B3: the “Antifungal score, Botrytis cinerea” value came to 0.

On to B4, for which the “Antifungal score, Botrytis cinerea” value turned out to be 0.

A further assay relates to Fusarium oxysporum. Put plainly: Anti-fungal bioassay (primary screening). In kind it is cell-based. Set-up: key: 0 = no effect; 1 = partial growth inhibition; 2 = strong inhibition. The conditions noted are these: protease-cleaved fusion protein samples, scored after 18 to 48 hours. The procedure: as §1, §2, §3
As for B1, the “Antifungal score, Fusarium oxysporum” value is 1.

For B2, the “Antifungal score, Fusarium oxysporum” value turned out to be 0.

Turning to B3, the “Antifungal score, Fusarium oxysporum” value was 0.

For B4, the “Antifungal score, Fusarium oxysporum” value was 0.

Another assay relates to Fusarium verticillioides. Put plainly: Anti-fungal bioassay (primary screening). The conditions noted are these: protease-cleaved fusion protein samples, scored after 18 to 48 hours. Further details: key: 0 = no effect; 1 = partial growth inhibition; 2 = strong inhibition. It counts as cell-based. The method, then: as §1, §2, §3
For the molecule B1, the “Antifungal score, Fusarium verticillioides” value came to 0.

Take B2: the “Antifungal score, Fusarium verticillioides” value was determined as 0.

B3: the “Antifungal score, Fusarium verticillioides” value turned out to be 0.

As to B4, the “Antifungal score, Fusarium verticillioides” value is 0.

The next assay has as its system Verticillium dahliae. Put plainly: Anti-fungal bioassay (primary screening). It counts as cell-based. Further details: key: 0 = no effect; 1 = partial growth inhibition; 2 = strong inhibition. The conditions noted are these: protease-cleaved fusion protein samples, scored after 18 to 48 hours. The method, then:
as §1, §2, §3
For the molecule B1, the “Antifungal score, Verticillium dahliae” value was determined as 2.

With B2, the “Antifungal score, Verticillium dahliae” value was 1.

Take B3: the “Antifungal score, Verticillium dahliae” value is 0.

With B4, the “Antifungal score, Verticillium dahliae” value is given as 0.
